Patent US20230279368A1 (NORTH CAROLINA STATE UNIVERSITY, published 2023)

Key:
[1] = biological target: the molecule itself; test: size exclusion chromatography, self-association (homodimer); data not shown
[2] = biological target: the molecule itself; test: size exclusion chromatography and SAXS, self-association (homodimer)
Procedure: Size Exclusion Chromatography. To determine molecular mass, NTA purified samples were subjected to size exclusion chromatography (Superdex 200 10/300 GL, GE Healthcare) equilibrated with SEC buffer (100 mM Tris pH7.5, 200 mM sodium chloride). The protein sample equilibrated in SEC buffer was applied to the column. The mass of BHT₍₂₃₋₅₉₄₎-HIS was calculated based on the standards in the high molecular weight gel calibration kit (Cytiva Life Sciences*).
Small angle X-ray scattering: Data Collection and Analysis. rBHT₍₂₃₋₅₉₄₎-HIS samples at 1 mg/ml and 4 mg/ml 5 mM in sodium phosphate buffer at pH 5 were measured on a Rigaku Bio-SAXS 2000. The instrument uses Cu Kα radiation (λ=1.54 Å) and was collimated to provide a sufficient Q-range of 0.01-0.67 Å⁻¹. Measurements were performed at ambient temperature. Samples were measured for a total of 40 min in 5 min scans. Data were corrected for transmission and sample background. […]
The dimer conformation was further validated in solution by small X-ray scattering (SAXS) (FIG. 7A). […] Molecular mass were calculated using the method described by Rambo and Tamer. The molecular mass determined from SAXS (˜169 KDa) confirmed that BHT forms a dimer in solution Table 3. […] The Rg and Dₘₐₓ of the 6M4F crystallographic dimer (molecule A and molecule C) calculated using Crysol are 34 Å and 110 Å, respectively. […]

Protein | binding result [1] | binding result [2]
rBHT(32-594)-HIS (enzyme, the entry describes its self-association into a dimer) SLTSNYETPSPTAIPLEPTPTATGTAELDALWNLVEAQYPVQTAAVTTLVTVPDDYKFEADPPSYALAGYETSEIAGLKFPKGFKFGVAGAAIQVEGAAKAEGRGPSTWDYLCHHYASTQCNNYDPDITTNHYYLYPLDFARLQHLGINTYSFSISWTRIYPLGAGYVNEAGLAHYDAVIHSAKKYGLEPVGTVFHWDTPLSLMLKYGAWQDTGDQIVKDFVTYATTVFKRYGNEVKTWFTFNEPRVFCSQNSGLPYNLTYPEGINSTSAVFRCTYNVLKAHGHAVKVYRDLVASGTIAAGEIGFKSDDNYPIPARPGNADDEESAKRHEAFRIGIFAQPVYGNGDYPDVVKETVGDMLPALTDEDKGYIKGSGDIFAIDGYRTDISHAALNGIANCIRNQSDPNWPVCEEGSDPFAHVYPSGFAIGQSADPLSSWLVNSAPFIRDQLKFLTQTYPAKGGIYFSEFGWAEDAEYDRQLLYQITWDGLRTQYLTDYLSQLLLAVHKDGINLRGALTWSFVDNWEWGLGMQQKFGFQFVNQSDPDLTRTFKLSAHAYAQFGRNHLHHHHHH | binds | –
rBHT(23-594)-HIS (enzyme, N-glycosylated at N289, N297, N431 and N569 (numbering of full-length BHT, SEQ ID NO: 1), expressed in K. pastoris, the entries describe its self-association into a homodimer) VTYPGAIPLSLTSNYETPSPTAIPLEPTPTATGTAELDALWNLVEAQYPVQTAAVTTLVTVPDDYKFEADPPSYALAGYETSEIAGLKFPKGFKFGVAGAAIQVEGAAKAEGRGPSTWDYLCHHYASTQCNNYDPDITTNHYYLYPLDFARLQHLGINTYSFSISWTRIYPLGAGYVNEAGLAHYDAVIHSAKKYGLEPVGTVFHWDTPLSLMLKYGAWQDTGDQIVKDFVTYATTVFKRYGNEVKTWFTFNEPRVFCSQNSGLPYNLTYPEGINSTSAVFRCTYNVLKAHGHAVKVYRDLVASGTIAAGEIGFKSDDNYPIPARPGNADDEESAKRHEAFRIGIFAQPVYGNGDYPDVVKETVGDMLPALTDEDKGYIKGSGDIFAIDGYRTDISHAALNGIANCIRNQSDPNWPVCEEGSDPFAHVYPSGFAIGQSADPLSSWLVNSAPFIRDQLKFLTQTYPAKGGIYFSEFGWAEDAEYDRQLLYQITWDGLRTQYLTDYLSQLLLAVHKDGINLRGALTWSFVDNWEWGLGMQQKFGFQFVNQSDPDLTRTFKLSAHAYAQFGRNHLHHHHHH | – | binds
rBHT(57-594)-HIS (enzyme, the entry describes its self-association into a dimer) AELDALWNLVEAQYPVQTAAVTTLVTVPDDYKFEADPPSYALAGYETSEIAGLKFPKGFKFGVAGAAIQVEGAAKAEGRGPSTWDYLCHHYASTQCNNYDPDITTNHYYLYPLDFARLQHLGINTYSFSISWTRIYPLGAGYVNEAGLAHYDAVIHSAKKYGLEPVGTVFHWDTPLSLMLKYGAWQDTGDQIVKDFVTYATTVFKRYGNEVKTWFTFNEPRVFCSQNSGLPYNLTYPEGINSTSAVFRCTYNVLKAHGHAVKVYRDLVASGTIAAGEIGFKSDDNYPIPARPGNADDEESAKRHEAFRIGIFAQPVYGNGDYPDVVKETVGDMLPALTDEDKGYIKGSGDIFAIDGYRTDISHAALNGIANCIRNQSDPNWPVCEEGSDPFAHVYPSGFAIGQSADPLSSWLVNSAPFIRDQLKFLTQTYPAKGGIYFSEFGWAEDAEYDRQLLYQITWDGLRTQYLTDYLSQLLLAVHKDGINLRGALTWSFVDNWEWGLGMQQKFGFQFVNQSDPDLTRTFKLSAHAYAQFGRNHLHHHHHH | binds | –
rBHT(54-594)-HIS (enzyme, the entry describes its self-association into a dimer) TGTAELDALWNLVEAQYPVQTAAVTTLVTVPDDYKFEADPPSYALAGYETSEIAGLKFPKGFKFGVAGAAIQVEGAAKAEGRGPSTWDYLCHHYASTQCNNYDPDITTNHYYLYPLDFARLQHLGINTYSFSISWTRIYPLGAGYVNEAGLAHYDAVIHSAKKYGLEPVGTVFHWDTPLSLMLKYGAWQDTGDQIVKDFVTYATTVFKRYGNEVKTWFTFNEPRVFCSQNSGLPYNLTYPEGINSTSAVFRCTYNVLKAHGHAVKVYRDLVASGTIAAGEIGFKSDDNYPIPARPGNADDEESAKRHEAFRIGIFAQPVYGNGDYPDVVKETVGDMLPALTDEDKGYIKGSGDIFAIDGYRTDISHAALNGIANCIRNQSDPNWPVCEEGSDPFAHVYPSGFAIGQSADPLSSWLVNSAPFIRDQLKFLTQTYPAKGGIYFSEFGWAEDAEYDRQLLYQITWDGLRTQYLTDYLSQLLLAVHKDGINLRGALTWSFVDNWEWGLGMQQKFGFQFVNQSDPDLTRTFKLSAHAYAQFGRNHLHHHHHH | binds | –
